Results: US20200046811

Molecular target: T1, Recombinant Human FGF23 (Fibroblast Growth Factor 23), Q9GZV9
T1 chain: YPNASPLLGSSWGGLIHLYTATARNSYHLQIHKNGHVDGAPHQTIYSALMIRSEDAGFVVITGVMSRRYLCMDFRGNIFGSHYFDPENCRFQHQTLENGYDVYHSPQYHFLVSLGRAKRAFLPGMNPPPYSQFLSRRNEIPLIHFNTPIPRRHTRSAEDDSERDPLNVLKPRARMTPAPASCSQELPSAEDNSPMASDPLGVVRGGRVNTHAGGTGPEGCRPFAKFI

B1: Recombinant human t-PA (tissue plasminogen activator) (protein)
chain: SYQVICRDEKTQMIYQQHQSWLRPVLRSNRVEYCWCNSGRAQCHSVPVKSCSEPRCFNGGTCQQALYFSDFVCQCPEGFAGKCCEIDTRATCYEDQGISYRGTWSTAESGAECTNWNSSALAQKPYSGRRPDAIRLGLGNHNYCRNPDRDSKPWCYVFKAGKYSSEFCSTPACSEGNSDCYFGNGSAYRGTHSLTESGASCLPWNSMILIGKVYTAQNPSAQALGLGKHNYCRNPDGDAKPWCHVLKNRRLTWEYCDVPSCSTCGLRQYSQPQFRIKGGLFADIASHPWQAAIFAKHRRSPGERFLCGGILISSCWILSAAHCFQERFPPHHLTVILGRTYRVVPGEEEQKFEVEKYIVHKEFDDDTYDNDIALLQLKSDSSRCAQESSVVRTVCLPPADLQLPDWTECELSGYGKHEALSPFYSERLKEAHVRLYPSSRCTSQHLLNRTVTDNMLCAGDTRSGGPQANLHDACQGDSGGPLVCLNDGRMTLVGIISWGLGCGQKDVPGVYTKVTNYLDWIRDNMRP
in vitro proteolysis of FGF23, silver stained SDS-PAGE gel: smaller fragments are generated on a silver stained SDS-PAGE gel indicating proteolytic cleavage
